Source: patent US20230322924A1 (Janssen / Centocor, published 2023)

Key:
[1] = target: T1, Cyno CD33 full length, expressed on HEK293F cells (cynomolgus monkey); test: flow cytometry, HEK293F cells expressing cyno CD33
T1 construct: HEK293F cells transduced with lentivirus containing full length cyno CD33 (Genbank XP_005590138.1); also called cyCD33
Procedure: (§1) OMNIRat antibodies identified via immunization, v-region cloned and subsequently expressed and purified were characterized further for binding to CD33 expressing cells and binding to recombinant antigens. The purified antibodies were assessed for binding to stably transfected HEK293F cells expressing human CD33 or cyno CD33 (generation described above) along with the parental HEK293F as negative control. Cells were harvested from tissue culture flasks using non-enzymatic dissociation buffer (Thermo Scientific). The flasks were rinsed twice with PBS and dissociation buffer was added to the flask, and the flask was incubated for 10 minutes at 37° C. until the cells became non-adherent. The cells were centrifuged at 300 g for 5 minutes and resuspended at 1.0×10⁶ cells/ml in staining buffer (Becton Dickinson; Franklin Lakes, NJ). 50,000 cells/well of each cell type was plated in 50 μl of staining buffer in round bottom plates (Becton Dickinson). […] 100 μl staining buffer was added to all wells of each plate, the plates were spun at 300 g for 5 min, the buffer was removed, 200 μl staining buffer was added to all wells of each plate, the plates were spun at 300 g for 5 min, and the buffer was removed. 50 μl of 2 μg/ml of Goat-anti-human Fc AF647 secondary antibody (Jackson Immunoresearch; West Grove, PA) was added to all wells of the plates, and the plates were incubated for 30 min at 4° C. 100 μl staining buffer was added to all wells of the plates, the plates were spun at 300 g for 5 min, and the buffer was removed. 200 μl running buffer (running buffer is Staining buffer, 1 mM EDTA, 0.1% Pluronic Acid) was added to all wells of the plates, the plates were spun at 300 g for 5 min, and the buffer was removed. 30 μl running buffer containing Sytox Green live/dead dye (ThermoFisher) was added to all wells with cells and the plates were read on an iQue IntelliCyt flow cytometer. Cells were gated on forward vs. side scatter to eliminate debris, then on singlets and then on live cells which excluded the Sytox stain. Antibody binding was assessed by the mean fluorescence intensity in the AF647 channel.

Human CD33 ECD-HSA [2] = target: Human CD33 ECD-HSA (human); test: SPRi off-rate screen (IBIS MX96), mAb captured by anti-human Fc; column head prints KD
Procedure: (§2) To begin assessing the biophysical binding properties of the purified mAbs an off-rate screen was performed. 76 OMNIRat anti-CD33 mAbs were tested for binding to recombinant human CD33 ECD-HSA (C33W2) and cyno CD33 ECD-HSA (C33W1) proteins (Janssen production) and the off-rate was measured by IBIS MX96 SPRi array platform (Carterra; Newton, PA). […] The sensor chip was transferred to the Continuous Flow Microspotter (CFM) unit to capture each anti-CD33 mAb at 10 μg/ml for 10 minutes. Binding was measured on IBIS SPRi by single cycle kinetics without regeneration. […] The raw binding data (.trix file format) were referenced and aligned using SprintX software (Wasatch, Ver 1.9.3.2), then exported (.ibmx file format) to Scrubber software (Ver. 2.0) for 1:1 binding kinetic analyses (Wasatch, version 2.0.0.33) to extract the koff results.

[3] = target: T2, Human CD33 full length, expressed on HEK293F cells (human, UniProt P20138 18-364); test: flow cytometry, HEK293F cells expressing human CD33
T2 construct: HEK293F cells transduced with lentivirus containing full length human CD33; also called huCD33
Procedure: as §1

Cyno CD33 ECD-HSA [4] = target: T3, Cyno CD33 ECD-HSA (cynomolgus monkey); test: SPRi off-rate screen (IBIS MX96), mAb captured by anti-human Fc; column head prints Cyno CD33 binding KD
T3 construct: Cyno CD33 extracellular domain fused to monomeric human serum albumin and a six-histidine tag; also called C33W1
Procedure: as §2

Cyno CD33 ECD-HSA [5] = target: T3, Cyno CD33 ECD-HSA; test: ProteOn SPR, mAb captured by anti-human Fc, 1:1 Langmuir fit
Procedure: (§3) The panel of mAbs was then further characterized for full affinity analysis as well as epitope binning. The binding of anti-CD33 mAbs to recombinant human CD33 ECD-HSA (C33W2) and cyno CD33 ECD-HSA (C33W1) was measured by ProteOn SPR (Bio-Rad). […] Different mAbs were captured on the anti-human Fc IgG surface at 0.25 or 0.5 μg/ml (160-300 RU) in vertical ligand orientation, with the 6th ligand channel as no ligand surface control. Human and cyno CD33-HSA proteins at 0.3 μM concentration in 3-fold dilution series of 5 concentrations flew in as analyte to bind to captured mAbs in the horizontal orientation. A buffer sample was also injected in the 6th channel to monitor the dissociation of captured mAb and baseline stability. […] The raw biding data were processed by double referencing after subtracting the response data from: 1) the inter-spot to correct for the non-specific interactions between the Ag and the empty chip surface; 2) the buffer channel to correct for baseline drifting due to the dissociation of captured mAb surface over time. The processed data at all antigen concentrations for each mAb were globally fit to a 1:1 simple Langmuir binding model to extract estimates of the kinetic (kₒₙ, koff) and affinity (Kd) constants.

Human CD33 full length = target: T4, Human CD33 full length (human, UniProt P20138 18-364); test: flow cytometry on HEK293F cells expressing human CD33
T4 construct: also called huCD33
Procedure: as §1, with “The” for “OMNIRat antibodies identified via immunization, v-region cloned and subsequently expressed and purified were characterized further for binding to CD33 expressing cells and binding to recombinant antigens. The”
(§4) The OmniMouse panel (8 mAbs total) was generated separately and characterized further for binding to cells.

Cyno CD33 full length = target: T5, Cyno CD33 full length (cynomolgus monkey); test: flow cytometry on HEK293F cells expressing cyno CD33
T5 construct: also called cyCD33
Procedure: as §1, with “The” for “OMNIRat antibodies identified via immunization, v-region cloned and subsequently expressed and purified were characterized further for binding to CD33 expressing cells and binding to recombinant antigens. The”
as §4

Human CD33 ECD-HSA [6] = target: Human CD33 ECD-HSA (human); test: ProteOn SPR, mAb captured by anti-human Fc, 1:1 Langmuir fit
Procedure: as §3

T4 sequence (P20138 18-364 limits assumed): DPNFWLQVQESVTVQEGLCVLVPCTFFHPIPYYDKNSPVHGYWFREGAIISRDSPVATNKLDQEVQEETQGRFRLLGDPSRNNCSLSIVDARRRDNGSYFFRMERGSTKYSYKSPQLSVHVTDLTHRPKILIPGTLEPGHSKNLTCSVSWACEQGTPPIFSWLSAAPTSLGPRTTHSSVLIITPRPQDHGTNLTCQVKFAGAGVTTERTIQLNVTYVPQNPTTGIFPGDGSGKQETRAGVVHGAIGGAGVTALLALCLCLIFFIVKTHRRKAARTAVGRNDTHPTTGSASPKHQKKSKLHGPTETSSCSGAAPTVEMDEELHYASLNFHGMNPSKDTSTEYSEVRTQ
T2 sequence (P20138 18-364 limits assumed): as above
Human CD33 ECD-HSA (human), sequence (chain, as listed by the source): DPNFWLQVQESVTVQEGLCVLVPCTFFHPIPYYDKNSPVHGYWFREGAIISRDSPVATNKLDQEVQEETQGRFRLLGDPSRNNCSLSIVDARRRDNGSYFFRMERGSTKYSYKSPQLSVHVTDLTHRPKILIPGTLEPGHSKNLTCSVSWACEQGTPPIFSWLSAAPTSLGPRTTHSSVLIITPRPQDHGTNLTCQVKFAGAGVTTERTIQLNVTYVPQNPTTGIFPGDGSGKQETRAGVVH

Binder | MFI at 0 nM mAb (background) [1] [MFI] | MFI at 0.6 nM mAb [1] [MFI] | MFI at 6 nM mAb [1] [MFI] | MFI at 60 nM mAb [1] [MFI] | koff (Human CD33 ECD-HSA [2]) [s⁻¹] | MFI at 0 nM mAb (background) [3] [MFI] | MFI at 0.6 nM mAb [3] [MFI] | MFI at 6 nM mAb [3] [MFI] | MFI at 60 nM mAb [3] [MFI] | koff (Cyno CD33 ECD-HSA [4]) [s⁻¹] | Kd (Cyno CD33 ECD-HSA [5]) [nM] | koff (Cyno CD33 ECD-HSA [5]) [s⁻¹] | kon (Cyno CD33 ECD-HSA [5]) [M⁻¹ s⁻¹] | further results
C33B88 (antibody, IgG1, V domains shown, huIgG1 F405L; also called C33F93; C33H88/C33L61) VH: QVQLVQSGSELKKPGASVKVSCKASGYTLTRSAMNWVRQAPGQGLEWMGWINTNTGNPTYAQGFTGRFVFSLDTSVNTAYLLISSLKTEDTAVYYCASDILPGYHEDYWGQGTLVTVSS VL: QSALTQPASVSGSPGQSITISCTGINSDVGSYDLVSWYQQHPGKAPKLLIYDGSERPSGVFGRFSGSKSDNTTSLTISGLQAEDEAAYYCCSYEVTTTYVVFGGGTKLTVL | 90.1 | 43900 | 43900 | 50400 | 0.000825 | 94.8 | 274000 | 481000 | 393000 | 0.000389 | – | – | – | –
C33B107 (antibody, IgG1, V domains shown, huIgG1 F405L; also called C33F112; C33H68/C33L17) VH: EVQLLESGGGLVQPGGSLGLSCAASGFTFSGYAMSWVRQAPGKGLNWVSAIDYSGNDTYYADSVKGRFTISRDNSKNTLYLQMNSLRAEDTAVYYCAKESQLLHGLFEHWGQGILVTVSS VL: not shown | 55.1 | 36800 | 47800 | 50300 | 0.00444 | 86.5 | 161000 | 340000 | 375000 | 0.000135 | 0.212 | 7.01e-05 | 331000 | –
C33B909 (antibody, V domains shown, OMNIMouse-derived anti-CD33 mAb; same V regions as C33B901; The OMNIMouse mAbs were cloned into both IgG1 and IgG4 PAA; also called C33H249/C33L115) VH: EVQLVESGGGLVQPGRSLRLSCVASGFTFDDYAIHWVRQAPGKGLEWVSGLSWNGGNIGYADSVKGRFTISRDNAKNSLYLQMNSLKTEDTAFYYCTKDTPYGDYFDYWGQGTLVTVSS VL: DIQMTQSPSSVWASVGDRVTITCRASQGISSWLAWYQQQPGKAPNLLIYRSSSLQSGVPSRFSGSGSGTDFTLTISSLQPEDFATYYCQQDNSFPYTFGQGTKLEIK | – | – | – | – | – | – | – | – | – | – | – | – | – | MFI at 0 nM (background) (Human CD33 full length): 191 MFI; MFI at 0.6 nM (Human CD33 full length): 154 MFI; MFI at 6 nM (Human CD33 full length): 170 MFI; MFI at 60 nM (Human CD33 full length): 176 MFI; MFI at 0 nM (background) (Cyno CD33 full length): 124 MFI; MFI at 0.6 nM (Cyno CD33 full length): 116 MFI; MFI at 6 nM (Cyno CD33 full length): 135 MFI; MFI at 60 nM (Cyno CD33 full length): 180 MFI
C33B910 (antibody, V domains shown, OMNIMouse-derived anti-CD33 mAb; same V regions as C33B902; also called C33H250/C33L116) VH: EVQLVESGGGLVQPGRSLRLSCAGSGFTFDDYAIHWVRQAPGKGLEWVSGLSWNGGNIGYADSVKGRFTISRDNAKNSLYLQLNSLKTEDTAFYYCAKDSPYGDYFDYWGQGTLVTVSS VL: DIQMTQSPSSEWASVGDRVTITCRASQGISSWLAWYQQKPGKAPKLLIYGASSWQSGVPSRFSGSGSGTDFTLTISSLQPEDFATYYCQQDNSFPYTFGQGTKLEIK | – | – | – | – | – | – | – | – | – | – | – | – | – | MFI at 0 nM (background) (Human CD33 full length): 155 MFI; MFI at 0.6 nM (Human CD33 full length): 151 MFI; MFI at 6 nM (Human CD33 full length): 183 MFI; MFI at 60 nM (Human CD33 full length): 214 MFI; MFI at 0 nM (background) (Cyno CD33 full length): 176 MFI; MFI at 0.6 nM (Cyno CD33 full length): 117 MFI; MFI at 6 nM (Cyno CD33 full length): 135 MFI; MFI at 60 nM (Cyno CD33 full length): 202 MFI
C33B54 (antibody, IgG1, V domains shown, huIgG1 F405L; also called C33F59; C33H44/C33L10) VH: QVQLQQSGPGLVKPSQTLSLTCAISGDSVSSNSAAWNWIRQSPSRGLEWLGRTYYRSKWYNDYAVSVRSRITINPDTSKNQFSLQLNSVTPEDTAVYHCARETMFRGLMDYWGQGTLVTVSS VL: SYVLTQPPSVSVAPGQTARITCGGSNIGSKSVHWYQQKPGQAPVMVVYDDSDRPSGIPERFSGSNSGNTATLTISRVEAGDEADYYCQVWDSSSDVVFGGGTKLTVL | 28800 | 38100 | 43000 | 50500 | 0.0248 | 61.3 | 3770 | 27500 | 148000 | 0.000135 | 0.484 | 0.000637 | 1.32e+06 | –
C33B89 (antibody, IgG1, V domains shown, huIgG1 F405L; also called C33F94; C33H90/C33L51) VH: QVQLQQSGPGLVKPSQTLSLTCAISGDSVSSNSAAWNWIRQSPSRGLEWLGRTYYRSKWYNDYALSVQSRITINPDTSKNQFSLQLNSVTPEDTAVYYCAREVAVAASFDYWGQGTLVTVSS VL: SYVLTQPPSVSVAPGQTARITCGGNNIGSKSVHWSQQKPGQAPVLVVYDDSDRPSGIPERFSGSNSGNTATLTISRVEAGDEADYYCQVWDSNSDHVVFGGGTKLTVL | 113 | 23300 | 34200 | 47300 | 0.00811 | – | – | – | – | 4.65e-05 | 0.76 | 0.000201 | 265000 | –
C33B96 (antibody, IgG1, V domains shown, huIgG1 F405L; also called C33F101; C33H99/C33L37) VH: EVQLVESGGGLVQPGGSLRLSCAASGFTFSSYWMTWVRPAPGKGLEWVANIKRDGGEKYYVDSVKGRFTISRDNAANSLYLQMNSLRVEDTAVYYCARPFYDHFDYWGQGTLVTVSS VL: SYVLTQPPSVAVAPGQTARITCGGSNIGKISVHWYQQKAGQAPVLVVHDDRARPSGIPERLSGSNSGTTATLTISRVEVGDEADYYCQVWNSSSVHPVFGGGTKLTVL | 86.3 | 11600 | 20100 | 37300 | 0.000228 | 55.2 | 188000 | 476000 | 476000 | 0.000819 | – | – | – | Kd (Human CD33 ECD-HSA [6]): 1.92 nM; koff (Human CD33 ECD-HSA [6]): 0.000436 s⁻¹; kon (Human CD33 ECD-HSA [6]): 226000 M⁻¹ s⁻¹
